According to IntAct's records for PubMed 11473260:

B1: SAGA complex/transcription factor TFIID complex subunit TAF12 (Saccharomyces cerevisiae), Q03761 (parent)
chain: MSSNPENSGVNANNNTGTGNADAITGAQQNMVLQPRQLQEMAAKFRTLLTEARNVGETTPRGKELMFQAAKIKQVYDALTLNRRRQQAAQAYNNTSNSNSSNPASIPTENVPNSSQQQQQQQQQTRNNSNKFSNMIKQVLTPEENQEYEKLWQNFQVRHTSIKEKETYLKQNIDRLEQEINKQTDEGPKQQLQEKKIELLNDWKVLKIEYTKLFNNYQNSKKTFYVECARHNPALHKFLQESTQQQRVQQQRVQQQQQQQQQQQQQQQQQQQQQQQRQGQNQRKISSSNSTEIPSVTGPDALKSQQQQQNTITATNNPRGNVNTSQTEQSKAKVTNVNATASMLNNISSSKSAIFKQTEPAIPISENISTKTPAPVAYRSNRPTITGGSAMNASALNTPATTKLPPYEMDTQRVMSKRKLRELVKTVGIDEGDGETVIDGDVEELLLDLADDFVTNVTAFSCRLAKHRKSDNLEARDIQLHLERNWNIRIPGYSADEIRSTRKWNPSQNYNQKLQSITSDKVAAAKNNGNNVASLNTKK
partner: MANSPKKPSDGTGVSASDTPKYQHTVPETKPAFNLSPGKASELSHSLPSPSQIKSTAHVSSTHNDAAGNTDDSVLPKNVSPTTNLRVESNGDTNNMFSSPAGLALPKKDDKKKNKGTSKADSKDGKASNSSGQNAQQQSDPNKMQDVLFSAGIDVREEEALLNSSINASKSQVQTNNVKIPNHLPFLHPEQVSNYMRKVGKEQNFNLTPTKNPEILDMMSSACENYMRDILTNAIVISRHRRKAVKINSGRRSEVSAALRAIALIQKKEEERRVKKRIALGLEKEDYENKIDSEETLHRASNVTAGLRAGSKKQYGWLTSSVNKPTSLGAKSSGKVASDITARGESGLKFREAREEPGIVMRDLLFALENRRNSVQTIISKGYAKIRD

Variants of: B1
Settings: with taf4_yeast TAF4, P50105

effect of a mutation on the interaction | Variant
disrupting interaction | L446A
disrupting interaction | L449A
